Assay [1] concerns the target T1, FLAG-tagged human APRIL (human, UniProt O75888 105-250, limits assumed).
T1 construct: also called FLAG-tagged APRIL; FLAG-APRIL; not shown: FLAG tag
T1 sequence (looked up): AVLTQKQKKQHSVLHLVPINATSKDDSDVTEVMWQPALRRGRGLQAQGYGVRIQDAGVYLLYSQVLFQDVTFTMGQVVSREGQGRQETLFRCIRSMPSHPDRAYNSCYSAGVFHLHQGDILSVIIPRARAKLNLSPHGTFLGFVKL
Briefly: FLAG-APRIL ELISA after 10 min at 65 °C, antibody at 1 µg/ml. The procedure: (§1) The plasmids encoding the VH and VL constructs were mixed in a 1:3 ratio (4 μg in total) and transiently expressed by transfection into HEK293T human embryonic kidney cells (HEK293T/17, ATCC-CRL-11268), using Lipofectamine 2000 transfection reagent (Invitrogen) following the manufacturer's instructions. Cell supernatants were harvested after 5 days and tested for expression of antibody and binding to APRIL using an enzyme-linked immuno assay (ELISA). In these ELISAs, all incubation steps were followed by a wash step with PBST (PBS with 0.01% Tween 20). Maxisorb 96-wells plates (Nunc) were coated with 0.5 μg/ml anti-FLAG (Sigma) or anti-IgG4 (Jackson laboratories) and incubated overnight at 4° C. Subsequently the anti-FLAG coated 96-wells plates were incubated with FLAG-tagged human APRIL for 1 hour at room temperature. Next, supernatants and dilutions thereof were incubated for 1 hour, which was followed by an incubation of 1 hour with mouse anti-human IgG HRP-conjugate (Southern Biotechnology).
(§2) To determine the effect of humanization on the stability of the antibodies, humanized antibodies were exposed to a range of temperatures for 10 minutes. Purified antibodies were diluted to 3.16 μg/ml and dilutions thereof in PBS. Next, these solutions were exposed to 65° C. or 70° C. and residual binding after heat treatment of the antibodies was measured using the FLAG-tagged APRIL ELISA assay as described before (see Table 6).
(§3) In addition, the stability of the substituted humanized antibodies was improved as determined using thermostability studies as described in Example 3 (see Table 9).

Assay [2] concerns the target T1, FLAG-tagged human APRIL. Briefly: FLAG-APRIL ELISA after 10 min at 70 °C, antibody at 1 µg/ml.
In assay [3] the target is T1, FLAG-tagged human APRIL. Briefly: FLAG-APRIL ELISA after 10 min at 65 °C, antibody at 3.16 µg/ml. As to the method:
as §1, §2, §3

Assay [4] concerns the target T1, FLAG-tagged human APRIL. Briefly: FLAG-APRIL ELISA after 10 min at 70 °C, antibody at 3.16 µg/ml.
The target in assay [5] is T1, FLAG-tagged human APRIL. Briefly: FLAG-APRIL ELISA after 10 min at 65 °C, antibody at 0.316 µg/ml. The procedure:
as §1, §2, §3

The target in assay [6] is T1, FLAG-tagged human APRIL. Briefly: FLAG-APRIL ELISA after 10 min at 70 °C, antibody at 0.316 µg/ml.
Assay [7] concerns the target T1, FLAG-tagged human APRIL. Briefly: ELISA: FLAG-tagged human APRIL captured on anti-FLAG plate, purified antibody titrated.
Assay [8] concerns the target T1, FLAG-tagged human APRIL. Kind of assay: competition ELISA: antibody premixed with FLAG-tagged APRIL, added to coated Fc-BCMA, anti-FLAG HRP. The procedure:
A subset of humanized antibodies described above was selected for further analyses. Again, plasmids encoding the VH and VL constructs were mixed in a 1:3 ratio (32 μg) and transiently expressed by transfection into (8*10⁶) HEK293T human embryonic kidney cells (HEK293T), using Lipofectamine 2000 transfection reagent (Invitrogen) according to the manufacturer's instructions. Supernatants were harvested (10 ml) and antibodies were purified using MabSelect Sure Protein A resin according to the manufacturer's instructions (GE Healthcare). Buffer was exchanged for PBS using Zeba desalting columns (Thermo Scientific). The concentration of purified antibodies was determined based on OD280 (Nanodrop ND-1000). The binding of the purified antibodies to APRIL was established using the above described APRIL ELISA. The blocking capability of the humanized antibodies with BCMA and TACI receptors, was tested in a competition ELISA. In these ELISAs, all incubation steps were followed by a wash step with PBST (PBS with 0.01% Tween 20). Maxisorb 96-wells plates (Nunc) were coated with 0.5 μg/ml Fc-BCMA (R&D Systems) or Fc-TACI (R&D Systems) and incubated overnight at 4° C. Next, humanized antibodies and dilutions thereof were incubated, premixed with FLAG-tagged APRIL, for 1 hour, which was followed by an incubation of 1 hour with anti-FLAG HRP-conjugate (Sigma). Immunoreactivity was visualized with 100 μl TMB Stabilized Chromagen (Invitrogen). Reactions were stopped with 100 μl 0.5 M H2504 and absorbances were measured at 450 and 620 nm. Calculated EC₅₀ and IC₅₀ representing the concentration at which 50% of the total binding signal or blocking is observed are represented in Table 5.
The antibodies were tested for binding, blockade, and stability as described before.

Assay [9] has as its target T1, FLAG-tagged human APRIL. Kind of assay: ELISA on FLAG-tagged human APRIL captured by anti-FLAG. As to the method: as §1
Immunoreactivity was visualized with 100 μl TMB Stabilized Chromagen (Invitrogen). Reactions were stopped with 100 μl 0.5 M H2504 and absorbances were measured at 450 and 620 nm.

Numbering of substitutions follows the chain as printed. In names and notes the source's numbering stands.

B1: VH14_1C.VL15 (antibody, human IgG4, V domains shown)
VH: QVQLVQSGAEVKKPGASVKVSCKASGYTFTSYVMHWVRQAPGQGLEWMGYINPYNDAPKYNEKFKGRVTITSDTSASTAYMELSSLRSDDTAVYYCARGLGYALYYAMDYWGQGTTVTVSS
VL: DIVMTQSPSTLSASVGDRVTITCKASQNVGNNVAWYQQKPGKAPKLLISSASNRDSGVPSRFSGSGSGTEFTLTISSLQPDDFATYFCQQYNIYPFTFGQGTKLEIK
notes: VH14_1 with M70I; Rest is human IgG4 (S241P, Kabat) and human kappa; also called 14_1C.15
As to B1, the “% residual binding after heat treatment (room temperature = 100%)” value (from here on “% residual binding after heat treatment”) worked out at 44.7% in the assay with FLAG-tagged human APRIL [1]; 43.8% with FLAG-tagged human APRIL [2]; 86.3% in the assay with FLAG-tagged human APRIL [3]; 99.4% with FLAG-tagged human APRIL [4]; 59.1% with FLAG-tagged human APRIL [5]; 59.1% with FLAG-tagged human APRIL [6]. Moreover, the midpoint of the response with FLAG-tagged human APRIL [7], the EC50, lay at 7.04 nM. For the same molecule, the IC50 with FLAG-tagged human APRIL [8] was found to be 5.26 nM.

B2: VH14.VL11 (combination of VH14 with VL11) (antibody, human IgG4, V domains shown)
VH: B1 VH with I70M, S72R
VL: DIVMTQSQKFMPTSVGDRVSVTCKASQNVGNNVAWYQQKPGQSPKALIYSASNRDSGVPDRFTGSGSGTDFTLTITNVQSEDLAEYFCQQYNIYPFTFGAGTKLELK
notes: Human IgG4 (S241P) / human kappa; Member of the group 'combinations of VH11-VH14 with VL10-VL14'
For B2, the binding result in the assay with FLAG-tagged human APRIL [9] is recorded as “no binding”.

B3: VH14.VL14 (combination of VH14 with VL14) (antibody, human IgG4, V domains shown)
VH: B1 VH with I70M, S72R
VL: B2 VL with V3L, F10I, E105D
notes: as for B2
Turning to B3, the binding result with FLAG-tagged human APRIL [9] is “no binding”.

B4: VH12.VL14 (combination of VH12 with VL14) (antibody, human IgG4, V domains shown)
VH: B1 VH with I70M, S72R, A76I, S85R
VL: B2 VL with V3L, F10I, E105D
notes: as for B2
For the molecule B4, the binding result with FLAG-tagged human APRIL [9] was “no binding”.

B5: VH12.VL11 (combination of VH12 with VL11) (antibody, human IgG4, V domains shown)
VH: B1 VH with I70M, S72R, A76I, S85R
VL: B2 VL
notes: as for B2
Regarding B5, in the assay with FLAG-tagged human APRIL [9], the binding result is recorded as “no binding”.

B6: VH11.VL14 (combination of VH11 with VL14) (antibody, human IgG4, V domains shown)
VH: B1 VH with G44R, S72R, D89E
VL: B2 VL with V3L, F10I, E105D
notes: as for B2
As to B6, the binding result with FLAG-tagged human APRIL [9] is “no binding”.

B7: VH13.VL11 (combination of VH13 with VL11) (antibody, human IgG4, V domains shown)
VH: B1 VH with I70M, S72R, A76T, A79V, D89E, T116M
VL: B2 VL
notes: as for B2
Take B7: the binding result with FLAG-tagged human APRIL [9] is given as “no binding”.

B8: VH11.VL11 (combination of VH11 with VL11) (antibody, human IgG4, V domains shown)
VH: B1 VH with G44R, S72R, D89E
VL: B2 VL
notes: as for B2
On to B8, for which the binding result with FLAG-tagged human APRIL [9] is “no binding”.

B9: VH13.VL14 (combination of VH13 with VL14) (antibody, human IgG4, V domains shown)
VH: B1 VH with I70M, S72R, A76T, A79V, D89E, T116M
VL: B2 VL with V3L, F10I, E105D
notes: as for B2
Consider B9, for which the binding result in the assay with FLAG-tagged human APRIL [9] is given as “no binding”.

B10: VH14_1D.VL15 (antibody, human IgG4, V domains shown)
VH: B1 VH with I70M, T74K
VL: B1 VL
notes: VH14_1 with T74K; Rest is human IgG4 (S241P, Kabat) and human kappa; also called 14_1D.15
On to B10, for which the “% residual binding after heat treatment” value is 39.8% with FLAG-tagged human APRIL [1]; 32.7% in the assay with FLAG-tagged human APRIL [2]; 75.3% in the assay with FLAG-tagged human APRIL [3]; 84.3% with FLAG-tagged human APRIL [4]; 49.4% with FLAG-tagged human APRIL [5]; 45.6% with FLAG-tagged human APRIL [6]. In the assay with FLAG-tagged human APRIL [7], this molecule had an EC50 of 1.95 nM. In the assay with FLAG-tagged human APRIL [8], this molecule displayed an IC50 of 0.96 nM.

B11: VH14_1G.VL15 (antibody, human IgG4 S228P, kappa, V domains shown)
VH: B1 VH with R67K, V68A, I70M
VL: DIVMTQSPSTLSASVGDRVTITCKASQNVGNNVAWYQQKPGKAPKLLISSASNRDSGVPSRFSGSGSGTEFTLTISSLQPDDFATYFCQQYNIYPFTFGQGTKLEIKR
notes: VH14_1 with R67K and V68A; Humanized IgG4 (S241P, Kabat) with human kappa; also called 14_1G.15; 14_1 G.15
As to B11, the “% residual binding after heat treatment” value in the assay with FLAG-tagged human APRIL [1] was 31.3%; with FLAG-tagged human APRIL [2] it was 16.9%; with FLAG-tagged human APRIL [3], 94.5%; with FLAG-tagged human APRIL [4] it was 78.2%; with FLAG-tagged human APRIL [5], 34.2%; in the assay with FLAG-tagged human APRIL [6] it was 23.8%. In the assay with FLAG-tagged human APRIL [7], this molecule showed an EC50 of 0.78 nM. In the assay with FLAG-tagged human APRIL [8], this molecule returned an IC50 of 1.35 nM.

B12: VH14_1E.VL15 (antibody, human IgG4, V domains shown)
VH: B1 VH with Q1E, I70M
VL: B1 VL
notes: VH14_1 with Q1E; Rest is human IgG4 (S241P, Kabat) and human kappa; also called 14_1E.15
As to B12, the “% residual binding after heat treatment” value with FLAG-tagged human APRIL [1] was 39.7%; in the assay with FLAG-tagged human APRIL [2], 28%; with FLAG-tagged human APRIL [3] it was 82.3%; in the assay with FLAG-tagged human APRIL [4] it was 78.8%; with FLAG-tagged human APRIL [5] it was 52%; with FLAG-tagged human APRIL [6], 43.3%. The molecule further showed an EC50 with FLAG-tagged human APRIL [7] of 2.67 nM. In the assay with FLAG-tagged human APRIL [8], this molecule registered an IC50 of 1.74 nM.

The values above are taken from patent US20160264674A1 (ADURO BIOTECH HOLDINGS EUROPE B V, published 2016).
